Source: US20150344570A1 (published 2015)

B1: GpH7-A5/GpH7-B3 variant P271_02A/GpL16-k0 (antibody, human IgG1, kappa)
heavy 1: not shown
heavy 2: not shown
light: DIVMTQSPLSLPVTPGEPASISCQASESLVHSNRNTYLHWYLQKPGQSPQLLIYKVSNRFSGVPDRFSGSGSGTDFTLKISRVEAEDVGVYYCSQNTHVPPTFGQGTKVEIERTVAAPSVFIFPPSDEQLKSGTASVVCLLNNFYPREAKVQWKVDNALQSGNSQESVTEQDSKDSTYSLSSTLTLSKADYEKHKVYACEVTHQGLSSPVTKSFNRGEC
notes: heterodimerized IgG1, mutation in one H chain; also called He Ab
B2: GpH7-A5/GpH7-B3 variant I336_03V/GpL16-k0 (antibody, human IgG1, kappa)
heavy 1: not shown
heavy 2: not shown
light: B1 light
notes: as for B1
B3: GpH7-A5/GpH7-B3 variant I336_06M/GpL16-k0 (antibody, human IgG1, kappa)
heavy 1: not shown
heavy 2: not shown
light: B1 light
notes: as for B1
B4: GpH7-A5/GpH7-B3 variant E269_08L/GpL16-k0 (antibody, human IgG1, kappa)
heavy 1: not shown
heavy 2: not shown
light: B1 light
notes: as for B1
B5: GpH7-A5/GpH7-B3 variant I336_04F/GpL16-k0 (antibody, human IgG1, kappa)
heavy 1: not shown
heavy 2: not shown
light: B1 light
notes: as for B1
B6: GpH7-A5/GpH7-B3 variant A330_09D/GpL16-k0 (antibody, human IgG1, kappa)
heavy 1: not shown
heavy 2: not shown
light: B1 light
notes: as for B1
B7: GpH7-A5/GpH7-B3 variant A330_14T/GpL16-k0 (antibody, human IgG1, kappa)
heavy 1: not shown
heavy 2: not shown
light: B1 light
notes: as for B1
B8: GpH7-A5/GpH7-B3 variant E333_01G/GpL16-k0 (antibody, human IgG1, kappa)
heavy 1: not shown
heavy 2: not shown
light: B1 light
notes: as for B1
B9: GpH7-A5/GpH7-B3 variant A327_09D/GpL16-k0 (antibody, human IgG1, kappa)
heavy 1: not shown
heavy 2: not shown
light: B1 light
notes: as for B1
B10: GpH7-A5/GpH7-B3 variant I336_18N/GpL16-k0 (antibody, human IgG1, kappa)
heavy 1: not shown
heavy 2: not shown
light: B1 light
notes: as for B1
B11: GpH7-A5/GpH7-B3 variant E269_04F/GpL16-k0 (antibody, human IgG1, kappa)
heavy 1: not shown
heavy 2: not shown
light: B1 light
notes: as for B1
B12: GpH7-A5/GpH7-B3 variant I336_01G/GpL16-k0 (antibody, human IgG1, kappa)
heavy 1: not shown
heavy 2: not shown
light: B1 light
notes: as for B1
B13: GpH7-A5/GpH7-B3 variant A330_08L/GpL16-k0 (antibody, human IgG1, kappa)
heavy 1: not shown
heavy 2: not shown
light: B1 light
notes: as for B1
B14: GpH7-A5/GpH7-B3 variant K326_15Y/GpL16-k0 (antibody, human IgG1, kappa)
heavy 1: not shown
heavy 2: not shown
light: B1 light
notes: as for B1
B15: GpH7-A5/GpH7-B3 variant K326_14T/GpL16-k0 (antibody, human IgG1, kappa)
heavy 1: not shown
heavy 2: not shown
light: B1 light
notes: as for B1
B16: GpH7-A5/GpH7-B3 variant I336_02A/GpL16-k0 (antibody, human IgG1, kappa)
heavy 1: not shown
heavy 2: not shown
light: B1 light
notes: as for B1
B17: GpH7-A5/GpH7-B3 variant I336_10E/GpL16-k0 (antibody, human IgG1, kappa)
heavy 1: not shown
heavy 2: not shown
light: B1 light
notes: as for B1
B18: GpH7-A5/GpH7-B3 variant E269_15Y/GpL16-k0 (antibody, human IgG1, kappa)
heavy 1: not shown
heavy 2: not shown
light: B1 light
notes: as for B1
B19: GpH7-A5/GpH7-B3 variant G236_20W/GpL16-k0 (antibody, human IgG1, kappa)
heavy 1: not shown
heavy 2: not shown
light: B1 light
notes: as for B1
B20: GpH7-A5/GpH7-B3 variant E269_06M/GpL16-k0 (antibody, human IgG1, kappa)
heavy 1: not shown
heavy 2: not shown
light: B1 light
notes: as for B1
B21: GpH7-A5/GpH7-B3 variant E333_13S/GpL16-k0 (antibody, human IgG1, kappa)
heavy 1: not shown
heavy 2: not shown
light: B1 light
notes: as for B1
B22: GpH7-B3 variant S239_09D/GpL16-k0 (antibody, human IgG1, kappa)
heavy: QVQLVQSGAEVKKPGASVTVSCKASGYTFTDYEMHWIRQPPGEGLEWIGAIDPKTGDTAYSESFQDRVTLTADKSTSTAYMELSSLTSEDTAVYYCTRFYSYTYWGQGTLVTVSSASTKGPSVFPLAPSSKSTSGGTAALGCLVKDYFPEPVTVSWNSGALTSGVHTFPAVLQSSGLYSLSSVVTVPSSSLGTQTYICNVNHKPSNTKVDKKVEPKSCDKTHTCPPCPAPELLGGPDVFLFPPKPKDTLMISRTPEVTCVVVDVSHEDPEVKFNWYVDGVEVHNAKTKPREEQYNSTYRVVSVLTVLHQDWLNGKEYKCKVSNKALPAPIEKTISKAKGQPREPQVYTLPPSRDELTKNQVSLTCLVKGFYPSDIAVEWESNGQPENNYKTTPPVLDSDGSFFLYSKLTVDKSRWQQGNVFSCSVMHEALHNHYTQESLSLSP
light: B1 light
notes: homodimerized IgG1, mutation in both H chains; also called Ho Ab
B23: GpH7-B3 variant S298_14T/GpL16-k0 (antibody, human IgG1, kappa)
heavy: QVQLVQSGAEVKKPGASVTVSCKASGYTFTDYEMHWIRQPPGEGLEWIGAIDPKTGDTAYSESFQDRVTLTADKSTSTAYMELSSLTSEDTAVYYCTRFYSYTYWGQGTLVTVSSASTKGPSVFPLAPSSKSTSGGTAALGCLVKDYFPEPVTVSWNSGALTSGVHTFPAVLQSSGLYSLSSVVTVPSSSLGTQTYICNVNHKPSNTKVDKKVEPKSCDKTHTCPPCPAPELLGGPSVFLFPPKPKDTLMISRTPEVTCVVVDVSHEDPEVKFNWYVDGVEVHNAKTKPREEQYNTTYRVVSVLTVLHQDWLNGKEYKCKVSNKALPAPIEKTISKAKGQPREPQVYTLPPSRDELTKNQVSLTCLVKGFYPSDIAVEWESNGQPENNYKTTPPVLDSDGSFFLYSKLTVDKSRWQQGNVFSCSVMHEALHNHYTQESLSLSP
light: B1 light
notes: as for B22
B24: GpH7-B3 variant S324_08L/GpL16-k0 (antibody, human IgG1, kappa)
heavy: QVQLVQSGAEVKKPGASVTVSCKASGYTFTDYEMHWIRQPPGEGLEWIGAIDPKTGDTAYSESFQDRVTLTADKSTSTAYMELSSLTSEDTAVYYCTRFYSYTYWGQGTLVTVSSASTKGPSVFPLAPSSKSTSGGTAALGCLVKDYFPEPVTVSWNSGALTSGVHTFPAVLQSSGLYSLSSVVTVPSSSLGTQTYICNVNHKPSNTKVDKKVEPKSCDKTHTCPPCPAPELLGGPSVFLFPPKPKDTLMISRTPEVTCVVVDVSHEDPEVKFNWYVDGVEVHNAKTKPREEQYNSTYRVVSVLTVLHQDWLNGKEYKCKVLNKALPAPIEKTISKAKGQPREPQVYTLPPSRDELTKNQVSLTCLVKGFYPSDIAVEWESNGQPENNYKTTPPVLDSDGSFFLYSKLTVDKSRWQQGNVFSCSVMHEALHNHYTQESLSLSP
light: B1 light
notes: as for B22
B25: GpH7-B3 variant S298_15Y/GpL16-k0 (antibody, human IgG1, kappa)
heavy: not shown
light: B1 light
notes: as for B22
B26: GpH7-B3 variant S337_03V/GpL16-k0 (antibody, human IgG1, kappa)
heavy: not shown
light: B1 light
notes: as for B22
B27: GpH7-B3 variant S324_20W/GpL16-k0 (antibody, human IgG1, kappa)
heavy: not shown
light: B1 light
notes: as for B22
B28: GpH7-B3 variant S324_02A/GpL16-k0 (antibody, human IgG1, kappa)
heavy: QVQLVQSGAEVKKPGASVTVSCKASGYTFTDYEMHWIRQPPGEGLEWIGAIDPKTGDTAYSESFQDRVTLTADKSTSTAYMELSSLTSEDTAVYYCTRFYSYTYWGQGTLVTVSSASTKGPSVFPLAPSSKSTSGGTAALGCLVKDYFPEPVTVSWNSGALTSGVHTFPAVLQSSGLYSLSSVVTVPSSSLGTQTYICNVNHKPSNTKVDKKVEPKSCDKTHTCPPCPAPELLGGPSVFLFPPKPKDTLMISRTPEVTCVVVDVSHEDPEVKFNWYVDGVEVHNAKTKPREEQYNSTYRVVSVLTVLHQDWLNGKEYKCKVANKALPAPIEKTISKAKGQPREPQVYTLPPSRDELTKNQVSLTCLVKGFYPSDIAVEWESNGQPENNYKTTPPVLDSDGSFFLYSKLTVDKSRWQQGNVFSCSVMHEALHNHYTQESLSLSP
light: B1 light
notes: as for B22
B29: GpH7-B3 variant S298_08L/GpL16-k0 (antibody, human IgG1, kappa)
heavy: not shown
light: B1 light
notes: as for B22
B30: GpH7-B3 variant S267_02A/GpL16-k0 (antibody, human IgG1, kappa)
heavy: not shown
light: B1 light
notes: as for B22
B31: GpH7-B3 variant S337_02A/GpL16-k0 (antibody, human IgG1, kappa)
heavy: not shown
light: B1 light
notes: as for B22
B32: GpH7-B3 variant S324_19Q/GpL16-k0 (antibody, human IgG1, kappa)
heavy: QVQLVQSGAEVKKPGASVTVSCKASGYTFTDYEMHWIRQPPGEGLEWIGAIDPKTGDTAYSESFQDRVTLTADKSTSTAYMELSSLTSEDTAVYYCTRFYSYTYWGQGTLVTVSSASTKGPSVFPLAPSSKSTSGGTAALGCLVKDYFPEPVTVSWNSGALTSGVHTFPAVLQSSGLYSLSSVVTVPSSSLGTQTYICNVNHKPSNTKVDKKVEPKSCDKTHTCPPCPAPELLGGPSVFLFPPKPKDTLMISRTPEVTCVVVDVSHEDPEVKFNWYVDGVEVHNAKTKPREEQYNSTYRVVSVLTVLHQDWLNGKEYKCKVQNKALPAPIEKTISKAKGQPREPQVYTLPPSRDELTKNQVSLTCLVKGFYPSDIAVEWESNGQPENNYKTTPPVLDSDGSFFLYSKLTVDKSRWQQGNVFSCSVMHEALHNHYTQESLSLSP
light: B1 light
notes: as for B22
B33: GpH7-B3 variant S324_14T/GpL16-k0 (antibody, human IgG1, kappa)
heavy: not shown
light: B1 light
notes: as for B22
B34: GpH7-B3 variant S298_07I/GpL16-k0 (antibody, human IgG1, kappa)
heavy: not shown
light: B1 light
notes: as for B22
B35: GpH7-B3 variant S267_01G/GpL16-k0 (antibody, human IgG1, kappa)
heavy: not shown
light: B1 light
notes: as for B22
B36: GpH7-B3 variant S337_01G/GpL16-k0 (antibody, human IgG1, kappa)
heavy: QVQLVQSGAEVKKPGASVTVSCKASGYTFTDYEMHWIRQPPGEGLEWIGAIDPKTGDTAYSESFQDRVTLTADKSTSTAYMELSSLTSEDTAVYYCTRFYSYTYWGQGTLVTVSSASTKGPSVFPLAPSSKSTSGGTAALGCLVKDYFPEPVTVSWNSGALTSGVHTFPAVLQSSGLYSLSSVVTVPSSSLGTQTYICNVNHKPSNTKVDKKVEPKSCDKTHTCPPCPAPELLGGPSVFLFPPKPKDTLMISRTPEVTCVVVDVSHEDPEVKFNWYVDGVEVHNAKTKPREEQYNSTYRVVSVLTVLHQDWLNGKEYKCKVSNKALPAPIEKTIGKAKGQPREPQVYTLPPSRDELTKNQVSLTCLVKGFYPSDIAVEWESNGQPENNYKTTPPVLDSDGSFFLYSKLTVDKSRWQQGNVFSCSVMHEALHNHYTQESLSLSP
light: B1 light
notes: as for B22
B37: GpH7-B3 variant S298_19Q/GpL16-k0 (antibody, human IgG1, kappa)
heavy: not shown
light: B1 light
notes: as for B22
B38: GpH7-B3 variant S298_16H/GpL16-k0 (antibody, human IgG1, kappa)
heavy: not shown
light: B1 light
notes: as for B22
B39: GpH7-B3 variant S298_18N/GpL16-k0 (antibody, human IgG1, kappa)
heavy: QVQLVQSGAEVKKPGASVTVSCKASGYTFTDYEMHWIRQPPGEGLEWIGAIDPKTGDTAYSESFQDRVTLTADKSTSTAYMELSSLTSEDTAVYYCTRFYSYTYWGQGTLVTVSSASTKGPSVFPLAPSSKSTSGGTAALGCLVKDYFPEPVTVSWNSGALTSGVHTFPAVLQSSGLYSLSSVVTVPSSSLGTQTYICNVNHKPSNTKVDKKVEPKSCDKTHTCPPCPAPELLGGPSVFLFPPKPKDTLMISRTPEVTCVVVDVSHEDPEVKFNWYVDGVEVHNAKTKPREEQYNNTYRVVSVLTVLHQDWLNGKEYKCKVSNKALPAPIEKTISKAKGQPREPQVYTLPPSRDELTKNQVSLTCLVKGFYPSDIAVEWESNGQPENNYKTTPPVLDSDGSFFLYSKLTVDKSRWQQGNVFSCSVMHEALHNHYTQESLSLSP
light: B1 light
notes: as for B22
B40: GpH7-B3 variant S298_10E/GpL16-k0 (antibody, human IgG1, kappa)
heavy: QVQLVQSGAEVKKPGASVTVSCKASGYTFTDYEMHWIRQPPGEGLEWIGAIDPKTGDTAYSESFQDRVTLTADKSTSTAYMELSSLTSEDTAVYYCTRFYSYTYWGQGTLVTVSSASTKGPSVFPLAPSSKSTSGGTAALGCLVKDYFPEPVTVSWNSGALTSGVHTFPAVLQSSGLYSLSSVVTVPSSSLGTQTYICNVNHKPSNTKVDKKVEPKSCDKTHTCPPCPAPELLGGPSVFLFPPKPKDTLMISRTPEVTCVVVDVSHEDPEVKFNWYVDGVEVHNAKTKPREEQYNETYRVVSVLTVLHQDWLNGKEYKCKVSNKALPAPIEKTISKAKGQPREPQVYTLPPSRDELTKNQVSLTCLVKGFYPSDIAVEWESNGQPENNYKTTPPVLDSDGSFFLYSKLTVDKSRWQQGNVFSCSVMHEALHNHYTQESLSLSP
light: B1 light
notes: as for B22
B41: GpH7-B3 variant S324_03V/GpL16-k0 (antibody, human IgG1, kappa)
heavy: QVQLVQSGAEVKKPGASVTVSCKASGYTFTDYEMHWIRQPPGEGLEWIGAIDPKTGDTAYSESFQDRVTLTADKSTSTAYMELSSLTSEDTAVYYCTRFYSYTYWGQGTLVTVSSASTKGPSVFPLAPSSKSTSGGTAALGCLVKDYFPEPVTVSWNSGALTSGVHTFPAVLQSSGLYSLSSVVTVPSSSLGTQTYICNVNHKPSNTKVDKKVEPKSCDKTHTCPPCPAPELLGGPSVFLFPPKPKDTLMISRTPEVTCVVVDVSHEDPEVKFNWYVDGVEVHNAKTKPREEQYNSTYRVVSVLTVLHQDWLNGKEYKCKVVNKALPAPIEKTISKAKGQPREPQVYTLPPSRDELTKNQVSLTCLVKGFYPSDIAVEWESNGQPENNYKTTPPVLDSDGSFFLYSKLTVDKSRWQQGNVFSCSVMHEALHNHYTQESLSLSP
light: B1 light
notes: as for B22
B42: GpH7-B3 variant S298_03V/GpL16-k0 (antibody, human IgG1, kappa)
heavy: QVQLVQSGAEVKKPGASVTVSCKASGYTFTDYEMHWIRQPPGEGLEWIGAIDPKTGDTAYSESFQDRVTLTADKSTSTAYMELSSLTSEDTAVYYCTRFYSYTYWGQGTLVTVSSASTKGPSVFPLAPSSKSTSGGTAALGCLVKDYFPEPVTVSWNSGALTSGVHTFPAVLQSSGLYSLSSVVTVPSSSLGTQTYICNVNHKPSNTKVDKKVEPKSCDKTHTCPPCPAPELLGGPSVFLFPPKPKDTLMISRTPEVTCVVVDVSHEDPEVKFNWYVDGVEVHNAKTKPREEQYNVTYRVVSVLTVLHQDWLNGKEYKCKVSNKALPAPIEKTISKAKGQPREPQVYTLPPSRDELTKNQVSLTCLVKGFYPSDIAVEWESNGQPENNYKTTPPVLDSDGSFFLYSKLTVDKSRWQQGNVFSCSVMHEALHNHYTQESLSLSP
light: B1 light
notes: as for B22
B43: GpH7-B3 variant S267_03V/GpL16-k0 (antibody, human IgG1, kappa)
heavy: not shown
light: B1 light
notes: as for B22
B44: GpH7-B3 variant S267_09D/GpL16-k0 (antibody, human IgG1, kappa)
heavy: not shown
light: B1 light
notes: as for B22

These binders were tested against T1, FcγRIa (human, UniProt P12314 16-292) (assay: SPR (Biacore), captured antibody, FcγRIa analyte; relative to HeCon Ab GpH7-A5/GpH7-B3/GpL16-k0 = 100).
T1 construct: extracellular domain; soluble extracellular domain with C-terminal His tag, expressed in FreeStyle293 cells; also called FcgRI; FcgRIa
T1 sequence (P12314 16-292): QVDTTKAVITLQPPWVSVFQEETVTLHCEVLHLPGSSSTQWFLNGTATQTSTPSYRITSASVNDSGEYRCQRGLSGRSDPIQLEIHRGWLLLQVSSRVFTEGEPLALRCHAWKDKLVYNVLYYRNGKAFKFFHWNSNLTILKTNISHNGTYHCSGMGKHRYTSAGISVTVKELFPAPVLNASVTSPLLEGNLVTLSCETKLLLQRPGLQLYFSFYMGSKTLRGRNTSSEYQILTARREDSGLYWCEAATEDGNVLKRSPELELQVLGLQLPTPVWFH

Row | He/Con_1a | Binder
1 | 104 % of control | B1
2 | 105 % of control | B2
3 | 108 % of control | B3
4 | 104 % of control | B4
5 | 106 % of control | B5
6 | 109 % of control | B6
7 | 105 % of control | B7
8 | 103 % of control | B8
9 | 103 % of control | B9
10 | 108 % of control | B10
11 | 103 % of control | B11
12 | 109 % of control | B12
13 | 107 % of control | B13
14 | 106 % of control | B14
15 | 104 % of control | B15
16 | 106 % of control | B16
17 | 108 % of control | B17
18 | 106 % of control | B18
19 | 105 % of control | B19
20 | 104 % of control | B20
21 | 103 % of control | B21

These binders were tested against T1, FcγRIa (assay: SPR (Biacore), captured antibody, FcγRIa analyte; relative to HoCon Ab GpH7-B3/GpL16-k0 = 100).

Row | Ho/Con_1a | Binder
22 | 101 % of control | B22
23 | 106 % of control | B23
24 | 103 % of control | B24
25 | 103 % of control | B25
26 | 105 % of control | B26
27 | 112 % of control | B27
28 | 103 % of control | B28
29 | 104 % of control | B29
30 | 108 % of control | B30
31 | 103 % of control | B31
32 | 111 % of control | B32
33 | 112 % of control | B33
34 | 103 % of control | B34
35 | 102 % of control | B35
36 | 102 % of control | B36
37 | 105 % of control | B37
38 | 107 % of control | B38
39 | 104 % of control | B39
40 | 106 % of control | B40
41 | 103 % of control | B41
42 | 106 % of control | B42
43 | 102 % of control | B43
44 | 106 % of control | B44
